Assay results from the supplement of paper PMC10201428.
± gives the standard deviation of the averaged measurements.

B1: library; a variant is named by its letters at N, in order (parent)
chain: AATGTTGTTGATGCAACCATAAAGTGATATTTAATAATTATTTATAATCAGCAACTTAACCACAAAACAACCATATATTGATATNTCACAAAACAACCATAANTTGATATTTTTGTGAATCGAGTATTTCAGCAAAACTACTGCAGTAAGAA

Experiments:
[1] = variants of: B1; experiment: relative integration efficiency (T-LR orientation) vs wild-type transposon end (log2 (normalized fold change)); transposon end mutated: left end; higher = more efficient transposition; details: with VchCAST RNA-guided transposition machinery (E. coli BL21(DE3) host, lacZ target)
Outline: (§1)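 Relative integration efficiency is a fold change of output over input barcode abundance, normalised to reference barcodes and log-transformed. Input plasmids and genomic integration junctions were PCR-amplified and Illumina-sequenced from E. coli BL21(DE3) co-transformed with a T7-driven effector plasmid and pUC57 donor pools of 1549 left-end or 1849 right-end transposon variants. Plating was done with 0.1 mM IPTG at 37°C for 18 h, with two biological output replicates and four reference barcodes.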

[2] = variants of: B1; experiment: relative integration efficiency (T-RL orientation) vs wild-type transposon end (log2 (normalized fold change)); transposon end mutated: left end; higher = more efficient transposition; details: with VchCAST RNA-guided transposition machinery (E. coli BL21(DE3) host, lacZ target)
Outline: as §1

Row | Variant | relative integration efficiency (log2) [1] | relative integration efficiency (log2) [2]
1 | CG C17A C71A C97A | -0.871 ± 0.35 | -1.21 ± 0.59
2 | CG A119C T120G C121A G122T A123C G124T T125G | -0.964 ± 0.063 | -0.304 ± 0.022
3 | CG C18G A19T T20A A21T | -2.57 ± 1.4 | -1.37 ± 0.56
4 | CG A58T A59T C60G C61G | -0.383 ± 0.24 | -0.275 ± 0.27
5 | CG A99T T100A A101T A102T | -0.997 ± 0.78 | -1.06 ± 0.48
6 | CG C17A C18A A19C T20G | -3.01 ± 0.42 | -2.69 ± 0.85
7 | CG A95C A96C C97A C98A | -1.32 ± 1.8 | -2.14 ± 0.8
8 | CG A77G | 0.0745 ± 0.45 | -0.243 ± 0.024
9 | CG A77T | -0.192 ± 0.066 | -0.217 ± 0.059
10 | CG A77C | 0.611 ± 0.89 | 0.337 ± 0.052
11 | CG A95T A96T | -0.891 ± 0.57 | -0.379 ± 0.28
12 | CG C49G | 0.811 ± 0.52 | 0.127 ± 0.33
13 | CG C49A | -0.195 ± 0.69 | 0.178 ± 0.24
14 | CG A65C A66C A67C C68A | -1.01 ± 0.56 | -0.474 ± 0.22
15 | CG A59C | 0.591 ± 0.26 | 0.072 ± 0.14
16 | CG A59G | 0.164 ± 0.45 | -0.0472 ± 0.057
17 | CG A59T | 0.107 ± 0.13 | 0.0634 ± 0.055
18 | CG A66T A67T | 0.205 ± 0.48 | -0.0368 ± 0.048
19 | CG A90C A91C | -0.406 ± 0.87 | -0.15 ± 0.34
20 | CG A65T A66T | 0.447 ± 0.39 | 0.107 ± 0.0079
21 | CG A54T C55G T56A T57A | -0.43 ± 0.9 | -0.861 ± 0.54
22 | CG A91C A92C A93C C94A | -0.269 ± 0.36 | -0.581 ± 0.55
23 | CG A109C T110G T111G T112G | -1.67 ± 0.36 | -1.4 ± 0.41
24 | CG A66C C68A A69C A70C C71A C72T A77T T78G T79A G80T A83C T86A C87A | -2.717 ± 0.015 | -1.87 ± 0.77

Row | Variant | relative integration efficiency (log2) [1] | relative integration efficiency (log2) [2]
25 | CG A96G | -1.06 ± 0.18 | -0.704 ± 0.32
26 | CG A96T | -0.52 ± 0.14 | -0.314 ± 0.13
27 | CG A96C | 0.848 ± 0.0087 | 0.7239 ± 0.0024
28 | CG A66G | -0.258 ± 0.65 | 0.0591 ± 0.047
29 | CG A66T | 0.195 ± 0.21 | 0.0703 ± 0.19
30 | CG A66C | 0.113 ± 0.11 | -0.147 ± 0.047
31 | CG A65C A66C | 0.318 ± 0.48 | 0.0588 ± 0.077
32 | CG A67G | -0.325 ± 0.26 | -0.269 ± 0.083
33 | CG A67T | -0.588 ± 0.78 | -0.202 ± 0.27
34 | CG A67C | -0.106 ± 0.44 | -0.129 ± 0.051
35 | CG A81T T82A | -1.34 ± 0.81 | -1.03 ± 0.48
36 | CG A92C A93C C94A A95C | -1.74 ± 0.33 | -1.09 ± 0.75
37 | CG A88T C89G A90T A91T | -0.283 ± 0.86 | -0.432 ± 0.33
38 | CG A88T | 0.112 ± 0.73 | 0.0226 ± 0.1
39 | CG A88C | -0.0509 ± 0.39 | -0.148 ± 0.082
40 | CG A88G | -0.182 ± 0.22 | -0.24 ± 0.098
41 | CG A99C T100G A101C A102C | -1.07 ± 1.4 | -1.82 ± 0.89
42 | CG A65G | 0.108 ± 0.82 | 0.247 ± 0.21
43 | CG A65T | 0.125 ± 0.051 | 0.0807 ± 0.096
44 | CG A65C | 0.328 ± 0.076 | 0.247 ± 0.051
45 | CG A73C T74G A75C T76G | -1.86 ± 0.67 | -2.23 ± 0.73
46 | CG A96C C97A | -2 ± 1 | -1.33 ± 0.57
47 | CG A73T T74A | -0.734 ± 0.56 | -0.97 ± 0.4
48 | CG C18A A19C T20G A21C | -2.8 ± 0.18 | -3.18 ± 0.65

Row | Variant | relative integration efficiency (log2) [1] | relative integration efficiency (log2) [2]
49 | CG A69T A70T | -0.797 ± 0.57 | -0.395 ± 0.4
50 | CG A58G | -0.0735 ± 0.46 | -0.101 ± 0.063
51 | CG A58C | -0.0754 ± 0.25 | -0.223 ± 0.17
52 | CG A58T | -1.76 ± 1.7 | -0.0803 ± 0.089
53 | CG A93T C94G A95T A96T | -2.14 ± 0.41 | -1.82 ± 0.58
54 | TG A70C T76A T86G | 0.145 ± 0.46 | -0.133 ± 0.18
55 | CG A66C A67C C68A A69C | -0.943 ± 0.25 | -0.685 ± 0.37
56 | CG A59C C60A | -0.233 ± 0.25 | -0.0701 ± 0.0044
57 | CG A58C A59C C60A C61A | 0.829 ± 0.17 | 1.06 ± 0.036
58 | CG C14G A15T | -1.58 ± 0.72 | -0.642 ± 0.37
59 | CG C14G A15T A16T C17G | -1.31 ± 0.38 | -1.26 ± 0.49
60 | CG A92T A93T | -0.29 ± 0.86 | -0.445 ± 0.23
61 | CG A54T C55G | 0.202 ± 0.2 | -0.316 ± 0.29
62 | CG A67C C68A A69C A70C | -0.846 ± 1.2 | -0.531 ± 0.42
63 | CG C18A C72A C98A | -1.73 ± 0.24 | -1.91 ± 0.81
64 | CG A64T A65T A66T A67T | -0.239 ± 0.35 | -0.0292 ± 0.19
65 | CG A88C C89A A90C A91C | -0.0905 ± 0.58 | -0.404 ± 0.32
66 | CG A101C | -1.67 ± 0.92 | -1.29 ± 0.49
67 | CG A101T | -0.501 ± 0.29 | -0.599 ± 0.23
68 | CG A101G | -1.62 ± 1.1 | -1.22 ± 0.47
69 | CG A83T | -0.465 ± 0.53 | -0.189 ± 0.057
70 | CG A83G | 0.426 ± 0.3 | 0.00989 ± 0.23
71 | CG A83C | 0.152 ± 0.25 | 0.0829 ± 0.27
72 | CG C49G A50T | -0.94 ± 0.92 | -0.509 ± 0.62

Row | Variant | relative integration efficiency (log2) [1] | relative integration efficiency (log2) [2]
73 | CG C18G A19T | -1.25 ± 0.29 | -1.13 ± 0.5
74 | CG A91T A92T | 0.705 ± 0.2 | 0.108 ± 0.066
75 | CG C14A A15C A16C C17A | -1.81 ± 1 | -1.38 ± 0.6
76 | CG A107T T108A A109T T110A | -0.765 ± 0.3 | -0.783 ± 0.46
77 | CG A70C C71A | -1.75 ± 1.2 | -1.24 ± 0.54
78 | CG A58T A59T | 0.226 ± 0.49 | -0.00421 ± 0.16
79 | CG A70C C71A C72A A73C | -2 ± 1.7 | -2.13 ± 0.84
80 | CG A81C T82G A83C T84G | -1.87 ± 0.22 | -1.9 ± 0.68
81 | CG C49A A50T C52T T56C T57A C60A C61G A62T C63A | -3.63 ± 0.43 | -5.28 ± 0.94
82 | CG A95T | -0.598 ± 0.89 | -0.00814 ± 0.24
83 | CG A95C | -0.179 ± 0.35 | -0.318 ± 0.063
84 | CG A95G | -1.23 ± 0.42 | -0.845 ± 0.39
85 | CG A109G | -0.737 ± 0.88 | -0.662 ± 0.16
86 | CG A109T | 0.223 ± 0.47 | 0.209 ± 0.39
87 | CG A109C | 0.0163 ± 0.22 | -0.193 ± 0.42
88 | CG A96T C97G | -0.64 ± 0.43 | -0.723 ± 0.29
89 | CG A90C A91C A92C A93C | -0.132 ± 0.77 | -0.283 ± 0.31
90 | AG A83C T84G T86G | -1.31 ± 0.49 | -0.668 ± 0.067
91 | CG A96C C97A C98A A99C | -1.79 ± 0.72 | -2.25 ± 0.85
92 | CG A91T | -0.0651 ± 0.68 | -0.101 ± 0.084
93 | CG A91G | 0.0207 ± 0.21 | -0.155 ± 0.14
94 | CG A91C | -0.299 ± 1.1 | -0.278 ± 0.17
95 | CG A95T A96T C97G C98G | -1.79 ± 0.29 | -1.94 ± 0.81
96 | CG A118C A119C T120G C121A G122T A123C G124T T125G | -0.0272 ± 0.24 | 0.0769 ± 0.16

Row | Variant | relative integration efficiency (log2) [1] | relative integration efficiency (log2) [2]
97 | CG A93C C94A | -0.406 ± 0.83 | -0.522 ± 0.41
98 | CG A88C C89A | 0.0423 ± 0.026 | 0.0174 ± 0.062
99 | CG A109T T110A T111A T112A | -1.2 ± 0.55 | -1.22 ± 0.46
100 | CG C14G C68G C94G | -2.2 ± 0.43 | -2.49 ± 1.3
101 | CG A67T C68G | -0.364 ± 0.41 | -0.543 ± 0.47
102 | CG A88T C89G | 0.362 ± 0.31 | 0.178 ± 0.048
103 | CG A119C T120G | -0.429 ± 1.1 | -0.131 ± 0.072
104 | CG C18T | 0.181 ± 0.51 | 0.16 ± 0.08
105 | CG C18G | 0.0813 ± 0.047 | 0.259 ± 0.083
106 | CG C18A | 0.107 ± 0.17 | -0.181 ± 0.016
107 | CG A73C | -2.78 ± 1.5 | -1.14 ± 0.6
108 | CG A73T | -0.055 ± 0.17 | -0.536 ± 0.45
109 | CG A73G | 0.14 ± 0.13 | 0.0329 ± 0.31
110 | CG C14A C68A C94A | -1.29 ± 1.1 | -0.864 ± 0.51
111 | CG A81T T82A A83T T84A | -0.679 ± 1.2 | -0.753 ± 0.74
112 | CG A99C T100G | -1.66 ± 1.1 | -1.87 ± 0.76
113 | CG C18A A19C | -1.46 ± 0.83 | -1.68 ± 0.79
114 | CG A118T A119T | 0.266 ± 0.26 | -0.158 ± 0.014
115 | CG A118C A119C | 0.178 ± 0.4 | -0.00591 ± 0.078
116 | CG A62T C63G A64T A65T | 0.238 ± 0.12 | 0.339 ± 0.046
